The values that follow come from patent US20230279089A1 (GlaxoSmithKline, published 2023).

Test [1] deals with T1, Human BMP1 CD+CUB1 truncated antigen (human, UniProt P13497 121-434, limits assumed).
T1 construct: domain: CD+CUB1
T1 sequence (looked up): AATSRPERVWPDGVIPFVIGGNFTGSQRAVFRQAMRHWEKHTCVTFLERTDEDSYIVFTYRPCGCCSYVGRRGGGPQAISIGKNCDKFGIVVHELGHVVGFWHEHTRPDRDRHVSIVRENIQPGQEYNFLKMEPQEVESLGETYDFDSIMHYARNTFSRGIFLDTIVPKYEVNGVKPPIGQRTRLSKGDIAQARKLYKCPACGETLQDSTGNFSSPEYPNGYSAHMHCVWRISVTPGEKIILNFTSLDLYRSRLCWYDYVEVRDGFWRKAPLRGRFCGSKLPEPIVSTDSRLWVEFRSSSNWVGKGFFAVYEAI
Briefly: SPR, captured mAb, HBS-EP. In general terms: Surface plasmon resonance follows binding to a sensor surface in real time, without labels.

Test [2] addresses T2, Human TLL2 CD+CUB1 truncated antigen (human, UniProt Q9Y6L7 150-463, limits assumed).
T2 construct: domain: CD+CUB1
T2 sequence (looked up): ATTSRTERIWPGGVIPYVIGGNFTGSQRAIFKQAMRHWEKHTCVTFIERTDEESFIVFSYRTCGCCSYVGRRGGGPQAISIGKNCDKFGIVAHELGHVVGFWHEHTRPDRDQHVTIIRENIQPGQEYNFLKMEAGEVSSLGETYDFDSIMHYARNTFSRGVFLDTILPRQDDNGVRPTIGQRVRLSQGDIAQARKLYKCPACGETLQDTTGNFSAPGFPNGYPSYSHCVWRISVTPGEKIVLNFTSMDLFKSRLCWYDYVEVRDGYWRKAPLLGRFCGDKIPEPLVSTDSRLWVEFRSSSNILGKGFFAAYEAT
As to the kind of experiment: SPR, captured mAb, HBS-EP. On the procedure:
(§1) Both antibodies 13Y039-4B06-4334 and 13Y039-3E07-2944 and the reverse chimeric antibodies were evaluated for binding to human TLL2 CD+CUB1 and mouse BMP1 CD+CUB1 truncated antigens by SPR on a BIACORE T200. Protein A/G was immobilised to a CM5 sensor chip via amine coupling and the antibodies were captured to the protein A/G surface. The antigens were passed over the captured antibody at various concentrations. The measured affinities to human TLL2 CD+CUB1 are shown in Table 2 and the measured affinities to mouse BMP1 CD+CUB1 are shown in Table 3.

The target of test [3] is T3, Mouse BMP1 CD+CUB1 truncated antigen (mouse, UniProt P98063 126-439, limits assumed).
T3 construct: domain: CD+CUB1
T3 sequence (looked up): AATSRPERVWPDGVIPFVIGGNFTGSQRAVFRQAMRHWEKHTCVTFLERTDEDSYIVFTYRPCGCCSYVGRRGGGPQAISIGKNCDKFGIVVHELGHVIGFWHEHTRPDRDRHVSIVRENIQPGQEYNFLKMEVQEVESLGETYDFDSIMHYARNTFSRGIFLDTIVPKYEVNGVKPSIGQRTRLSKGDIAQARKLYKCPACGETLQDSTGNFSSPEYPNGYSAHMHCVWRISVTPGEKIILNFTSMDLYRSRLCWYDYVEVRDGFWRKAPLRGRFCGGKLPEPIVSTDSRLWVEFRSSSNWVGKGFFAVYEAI
As to the kind of experiment: SPR, captured mAb, HBS-EP. On the procedure:
as §1

In test [4] the target is T1, Human BMP1 CD+CUB1 truncated antigen. Briefly: SPR, captured mAb, enzyme dilution buffer.
The target of the next test is T4, Human BMP1-1 (human, UniProt P13497-2 121-730, limits assumed).
T4 sequence (looked up): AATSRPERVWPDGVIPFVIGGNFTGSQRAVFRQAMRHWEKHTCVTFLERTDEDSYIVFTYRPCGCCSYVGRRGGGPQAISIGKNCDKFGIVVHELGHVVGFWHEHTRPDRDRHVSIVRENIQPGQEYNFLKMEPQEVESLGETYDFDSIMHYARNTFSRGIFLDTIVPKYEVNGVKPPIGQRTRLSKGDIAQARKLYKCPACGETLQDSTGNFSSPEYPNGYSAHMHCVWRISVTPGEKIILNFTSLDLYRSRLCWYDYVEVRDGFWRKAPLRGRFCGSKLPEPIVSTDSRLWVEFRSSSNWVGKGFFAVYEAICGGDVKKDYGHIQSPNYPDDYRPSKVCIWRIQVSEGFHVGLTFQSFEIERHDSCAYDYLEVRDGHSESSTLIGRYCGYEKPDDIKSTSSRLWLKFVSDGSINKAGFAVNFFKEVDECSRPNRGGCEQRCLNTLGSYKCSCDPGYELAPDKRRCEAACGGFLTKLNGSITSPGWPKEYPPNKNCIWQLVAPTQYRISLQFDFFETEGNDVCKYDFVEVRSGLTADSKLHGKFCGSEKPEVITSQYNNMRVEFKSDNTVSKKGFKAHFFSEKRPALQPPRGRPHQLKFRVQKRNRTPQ
As to the kind of experiment: cell-based or functional assay.

The next test concerns the target T5, Mouse BMP1-3: 126-707 (mouse, UniProt P98063 126-707).
T5 sequence (looked up): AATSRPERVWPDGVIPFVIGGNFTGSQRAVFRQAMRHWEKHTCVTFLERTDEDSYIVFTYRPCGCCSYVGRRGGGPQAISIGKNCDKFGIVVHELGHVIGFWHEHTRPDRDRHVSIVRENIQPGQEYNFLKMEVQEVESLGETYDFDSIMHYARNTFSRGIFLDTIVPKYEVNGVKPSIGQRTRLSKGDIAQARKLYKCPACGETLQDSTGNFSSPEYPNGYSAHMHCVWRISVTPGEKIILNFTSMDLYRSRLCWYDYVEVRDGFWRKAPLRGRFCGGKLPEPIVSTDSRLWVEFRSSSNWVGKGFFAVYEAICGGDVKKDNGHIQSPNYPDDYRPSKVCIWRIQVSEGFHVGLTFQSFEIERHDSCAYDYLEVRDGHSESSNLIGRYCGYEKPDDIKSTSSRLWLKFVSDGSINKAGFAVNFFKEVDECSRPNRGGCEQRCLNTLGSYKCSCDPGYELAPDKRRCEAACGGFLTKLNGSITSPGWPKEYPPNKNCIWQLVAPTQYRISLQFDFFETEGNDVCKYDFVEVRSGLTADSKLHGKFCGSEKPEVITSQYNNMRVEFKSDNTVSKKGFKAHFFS
Briefly: cell-based or functional assay.

“And” between values parts separate entries of the source, which are not always exact repeats. Equal entries are not always repeated.

By Kd is commonly meant the free concentration of one partner at which half of the binding sites on the other are occupied at equilibrium, for simple one-to-one binding. Lower therefore signals tighter binding.

B1: 13Y039-3E07-2944 human variable region on mouse IgG2a LAGA Fc, mouse cKappa (Compound B) (antibody)
heavy: QVQLQQWGAGLLKPSETLSLTCAVYGGSFFGDYWSWIRQPPGKGLEWIGEIDWSGATNYNPSLKSRVTISVDTSKNQFSLKLSSVTAADTAVYYCARGGSKELSFDIWGQGTMVTVSSAKTTAPSVYPLAPVCGDTTGSSVTLGCLVKGYFPEPVTLTWNSGSLSSGVHTFPAVLQSDLYTLSSSVTVTSSTWPSQSITCNVAHPASSTKVDKKIEPRGPTIKPCPPCKCPAPNLAGAPSVFIFPPKIKDVLMISLSPIVTCVVVDVSEDDPDVQISWFVNNVEVHTAQTQTHREDYNSTLRVVSALPIQHQDWMSGKEFKCKVNNKDLPAPIERTISKPKGSVRAPQVYVLPPPEEEMTKKQVTLTCMVTDFMPEDIYVEWTNNGKTELNYKNTEPVLDSDGSYFMYSKLRVEKKNWVERNSYSCSVVHEGLHNHHTTKSFSRTPGK
light: DIQMTQSPSSLSASVGDRVTITCQASQDIANYLNWYQQKPGKAPKLLIYDASNLETGVPSRFSGSGSGTDFTFTISSLQPEDIATYYCQQADTLPFTFGGGTKVEIKRADAAPTVSIFPPSSEQLTSGGASVVCFLNNFYPKDINVKWKIDGSERQNGVLNSWTDQDSKDSTYSMSSTLTLTKDEYERHNSYTCEATHKTSTSPIVKSFNRNEC
notes: Reverse chimera; also called 13Y039-3E07-2944, mIgG2a LAGA
In the case of B1, the Kd in test [1] was 5.31 nM; in test [3], 2.66 nM and 6.2 nM; in test [4], 0.07 nM. Further, in test [2], the binding result is reported as “no binding”.

B2: 13Y039-4B06-4334 human variable region on rat IgG2b LAGA Fc and rat Kappa (Compound C) (antibody)
heavy: QVQLVQSGAEVKKPGASVKVSCKASGYTFLGYYMSWVRQAPGQGLEWMGWINPLSGETNYAQKFQGRVTMTRDTSISTAYMELSRLRSDDTAVYYCARDTGELDGMNWYFDLWGRGTLVTVSSAQTTAPSVYPLAPGCGDTTSSTVTLGCLVKGYFPEPVTVTWNSGALSSDVHTFPAVLQSGLYTLTSSVTSSTWPSQTVTCNVAHPASSTKVDKKVERRNGGIGHKCPTCPTCHKCPVPELAGAPSVFIFPPKPKDILLISQNAKVTCVVVDVSEEEPDVQFSWFVNNVEVHTAQTQPREEQYNSTFRVVSALPIQHQDWMSGKEFKCKVNNKALPSPIEKTISKPKGLVRKPQVYVMGPPTEQLTEQTVSLTCLTSGFLPNDIGVEWTSNGHIEKNYKNTEPVMDSDGSFFMYSKLNVERSRWDSRAPFVCSVVHEGLHNHHVEKSISRPPGK
light: EIVLTQSPATLSLSPGERATLSCRASQSVSSYLAWYQQKPGQAPRLLIYDASNRATGIPARFSGSGSGTDFTLTISSLEPEDFAVYYCQQSDSWPPTFGGGTKVEIKRADAAPTVSIFPPSTEQLATGGASVVCLMNNFYPRDISVKWKIDGTERRDGVLDSVTDQDSKDSTYSMSSTLSLTKADYESHNLYTCEVVHKTSSSPVVKSFNRNEC
As to B2, the “pKi, app, FRET enzyme activity, Human BMP1” value in the test with Human BMP1-1 worked out at 11.8. In addition, the “pKi, app, FRET enzyme activity, Mouse BMP1” value with Mouse BMP1-3: 126-707 came out at 11.3.
